Results: US20190106460A1 (published 2019)
Starred links: 1 amine or outer side, 2 acyl side, 3 side chain; linkers in the order of their positions; H or OH if unused. Non-standard residues stand in square brackets, D forms with d. *: point of attachment. Benzenesulfonyl(4-OMe) = COc1ccc(S(=O)(=O)*)cc1; 2Naphthylsulfonyl = O=S(=O)(c1ccc2ccccc2c1)*; 3,4‑(MeO)2‑PhSO2 = COc1ccc(S(=O)(=O)*)cc1OC; Phe(3-F) = N[C@@H](Cc1cccc(F)c1)C(=O)O; 1Nal = N[C@@H](Cc1cccc2ccccc12)C(=O)O; Suc = O=C(CCC(=O)[*:2])[*:1]; Tos = Cc1ccc(S(=O)(=O)*)cc1; Ethoxycarbonyl = CCOC(=O)*; Propionyl = CCC(=O)*; Bz = O=C(c1ccccc1)*; Moc = COC(=O)*

B1: 3,4-(MeO)2-PhSO2-dEGF(3F)WE-NH2 (peptide)
peptide: {3,4‑(MeO)2‑PhSO2}-[dD]EG[Phe(3-F)]WE-NH2
SMILES: COc1ccc(S(=O)(=O)N[C@H](CC(=O)O)C(=O)N[C@@H](CCC(=O)O)C(=O)NCC(=O)N[C@@H](Cc2cccc(F)c2)C(=O)N[C@@H](Cc2c[nH]c3ccccc23)C(=O)N[C@@H](CCC(=O)O)C(N)=O)cc1OC
notes: also called UBP029
B2: 4-(MeO)-PhSO2-DEGF(3F)WE-NH2 (peptide)
peptide: {Benzenesulfonyl(4-OMe)}-DEG[Phe(3-F)]WE-NH2
SMILES: COc1ccc(S(=O)(=O)N[C@@H](CC(=O)O)C(=O)N[C@@H](CCC(=O)O)C(=O)NCC(=O)N[C@@H](Cc2cccc(F)c2)C(=O)N[C@@H](Cc2c[nH]c3ccccc23)C(=O)N[C@@H](CCC(=O)O)C(N)=O)cc1
notes: also called UBP026
B3: EtO(CO)-dEGF(3F)WE-NH2 (peptide)
peptide: Ethoxycarbonyl-[dD]EG[Phe(3-F)]WE-NH2
SMILES: CCOC(=O)N[C@H](CC(=O)O)C(=O)N[C@@H](CCC(=O)O)C(=O)NCC(=O)N[C@@H](Cc1cccc(F)c1)C(=O)N[C@@H](Cc1c[nH]c2ccccc12)C(=O)N[C@@H](CCC(=O)O)C(N)=O
notes: also called UBP023
B4: Suc-EGFFE-NH2 (peptide)
peptide: Suc-EGFFE-NH2
SMILES: NC(=O)[C@H](CCC(=O)O)NC(=O)[C@H](Cc1ccccc1)NC(=O)[C@H](Cc1ccccc1)NC(=O)CNC(=O)[C@H](CCC(=O)O)NC(=O)CCC(=O)O
notes: also called UBP002
B5: Ts-dEGF(3F)WE-NH2 (peptide)
peptide: Tos-[dD]EG[Phe(3-F)]WE-NH2
SMILES: Cc1ccc(S(=O)(=O)N[C@H](CC(=O)O)C(=O)N[C@@H](CCC(=O)O)C(=O)NCC(=O)N[C@@H](Cc2cccc(F)c2)C(=O)N[C@@H](Cc2c[nH]c3ccccc23)C(=O)N[C@@H](CCC(=O)O)C(N)=O)cc1
notes: also called UBP021
B6: 2-NaphthylSO2-dEGF(3F)WE-NH2 (peptide)
peptide: 2Naphthylsulfonyl-[dD]EG[Phe(3-F)]WE-NH2
SMILES: NC(=O)[C@H](CCC(=O)O)NC(=O)[C@H](Cc1c[nH]c2ccccc12)NC(=O)[C@H](Cc1cccc(F)c1)NC(=O)CNC(=O)[C@H](CCC(=O)O)NC(=O)[C@@H](CC(=O)O)NS(=O)(=O)c1ccc2ccccc2c1
notes: also called UBP031
B7: Ts-dDGF(3F)WE-NH2 (peptide)
peptide: Tos-[dD]DG[Phe(3-F)]WE-NH2
SMILES: Cc1ccc(S(=O)(=O)N[C@H](CC(=O)O)C(=O)N[C@@H](CC(=O)O)C(=O)NCC(=O)N[C@@H](Cc2cccc(F)c2)C(=O)N[C@@H](Cc2c[nH]c3ccccc23)C(=O)N[C@@H](CCC(=O)O)C(N)=O)cc1
notes: also called UBP025
B8: Ts-dDGF(3F)WD-NH2 (peptide)
peptide: Tos-[dD]DG[Phe(3-F)]WD-NH2
SMILES: Cc1ccc(S(=O)(=O)N[C@H](CC(=O)O)C(=O)N[C@@H](CC(=O)O)C(=O)NCC(=O)N[C@@H](Cc2cccc(F)c2)C(=O)N[C@@H](Cc2c[nH]c3ccccc23)C(=O)N[C@@H](CC(=O)O)C(N)=O)cc1
notes: also called UBP028
B9: Ts-dEGF(3F)WD-NH2 (peptide)
peptide: Tos-[dD]EG[Phe(3-F)]WD-NH2
SMILES: Cc1ccc(S(=O)(=O)N[C@H](CC(=O)O)C(=O)N[C@@H](CCC(=O)O)C(=O)NCC(=O)N[C@@H](Cc2cccc(F)c2)C(=O)N[C@@H](Cc2c[nH]c3ccccc23)C(=O)N[C@@H](CC(=O)O)C(N)=O)cc1
notes: also called UBP027
B10: Ac-dEGF(3F)1NalE-NH2 (peptide)
peptide: Ac-[dD]EG[Phe(3-F)][1Nal]E-NH2
SMILES: CC(=O)N[C@H](CC(=O)O)C(=O)N[C@@H](CCC(=O)O)C(=O)NCC(=O)N[C@@H](Cc1cccc(F)c1)C(=O)N[C@@H](Cc1cccc2ccccc12)C(=O)N[C@@H](CCC(=O)O)C(N)=O
notes: also called UBP016
B11: MeO(CO)-dEGF(3F)WE-NH2 (peptide)
peptide: Moc-[dD]EG[Phe(3-F)]WE-NH2
SMILES: COC(=O)N[C@H](CC(=O)O)C(=O)N[C@@H](CCC(=O)O)C(=O)NCC(=O)N[C@@H](Cc1cccc(F)c1)C(=O)N[C@@H](Cc1c[nH]c2ccccc12)C(=O)N[C@@H](CCC(=O)O)C(N)=O
notes: also called UBP020

target: T1, βTrCP (tag cleaved and complexed with Skp1) (UniProt Q9Y297 175-605; P63208 1-163); test: FP competition vs fluorescein-IκB peptide
T1 construct: Protein of the FP assay (0.035 µM); also called Beta Transducin repeat-containing protein; βTrCP/Skp1
T1 sequence (Q9Y297 175-605, chain 1 of 2): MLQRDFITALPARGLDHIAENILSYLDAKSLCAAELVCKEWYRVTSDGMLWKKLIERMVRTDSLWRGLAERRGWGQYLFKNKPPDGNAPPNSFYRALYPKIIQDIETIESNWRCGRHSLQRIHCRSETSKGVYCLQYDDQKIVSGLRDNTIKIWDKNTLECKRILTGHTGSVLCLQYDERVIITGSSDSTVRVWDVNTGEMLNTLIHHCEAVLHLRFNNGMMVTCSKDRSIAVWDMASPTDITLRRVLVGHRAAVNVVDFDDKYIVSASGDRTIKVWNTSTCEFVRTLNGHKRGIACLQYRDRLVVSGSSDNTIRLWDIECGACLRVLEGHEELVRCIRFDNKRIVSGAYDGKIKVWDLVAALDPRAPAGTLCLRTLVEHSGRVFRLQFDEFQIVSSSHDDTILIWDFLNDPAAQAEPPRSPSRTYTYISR
T1 sequence (P63208 whole entry, chain 2 of 2): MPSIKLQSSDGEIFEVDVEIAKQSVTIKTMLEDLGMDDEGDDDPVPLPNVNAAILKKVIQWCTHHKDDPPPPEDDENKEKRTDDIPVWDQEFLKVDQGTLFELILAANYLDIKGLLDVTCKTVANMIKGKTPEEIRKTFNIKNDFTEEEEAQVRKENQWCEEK

Binder	IC50 [µM]
B1	0.042
B2	0.027
B3	0.045
B4	3.18
B5	0.029
Bz-[dD]EG[Phe(3-F)]WE-NH2 (also called UBP018) [Bz-dEGF(3F)WE-NH2]	0.173
B6	0.044
B7	0.025
B8	0.081
B9	0.034
B10	0.112
Ac-[dD]EG[Phe(3-F)]WE-NH2 (also called UBP017) [Ac-dEGF(3F)WE-NH2]	0.102
B11	0.076
Propionyl-[dD]EG[Phe(3-F)]WE-NH2 (also called UBP019) [Et(CO)-dEGF(3F)WE-NH2]	0.145

target: Skp2 (UniProt Q13309 1-424, limits assumed); test: cell-based or functional assay
Sequence (Q13309 whole entry): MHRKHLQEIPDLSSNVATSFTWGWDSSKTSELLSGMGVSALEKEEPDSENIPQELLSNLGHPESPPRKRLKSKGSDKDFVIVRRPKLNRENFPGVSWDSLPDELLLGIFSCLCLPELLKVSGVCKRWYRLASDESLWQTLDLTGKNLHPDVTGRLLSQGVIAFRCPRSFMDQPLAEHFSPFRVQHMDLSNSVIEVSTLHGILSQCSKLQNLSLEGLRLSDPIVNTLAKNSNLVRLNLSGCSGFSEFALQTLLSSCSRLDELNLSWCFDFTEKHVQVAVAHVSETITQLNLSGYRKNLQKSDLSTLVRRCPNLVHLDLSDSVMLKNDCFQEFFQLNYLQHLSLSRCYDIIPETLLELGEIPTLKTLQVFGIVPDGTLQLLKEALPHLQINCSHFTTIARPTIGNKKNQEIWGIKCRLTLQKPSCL

Binder	% Inhibition Skp2 @ 10 µM [%]	% Inhibition Skp2 @ (100 µM) [%]
B1	19	19
B2	15	3
B3	4	4
B4	14	0
B5	19	25
Bz-[dD]EG[Phe(3-F)]WE-NH2 (also called UBP018) [Bz-dEGF(3F)WE-NH2]	0	0
B6	0	17
B7	0	22
B8	0	14
B9	4	6
B10	0	7
Ac-[dD]EG[Phe(3-F)]WE-NH2 (also called UBP017) [Ac-dEGF(3F)WE-NH2]	10	27
B11	0	16
Propionyl-[dD]EG[Phe(3-F)]WE-NH2 (also called UBP019) [Et(CO)-dEGF(3F)WE-NH2]	1	10

target: Fbw7 (UniProt Q969H0 263-707, limits assumed); test: cell-based or functional assay
Sequence (Q969H0 263-707 limits assumed): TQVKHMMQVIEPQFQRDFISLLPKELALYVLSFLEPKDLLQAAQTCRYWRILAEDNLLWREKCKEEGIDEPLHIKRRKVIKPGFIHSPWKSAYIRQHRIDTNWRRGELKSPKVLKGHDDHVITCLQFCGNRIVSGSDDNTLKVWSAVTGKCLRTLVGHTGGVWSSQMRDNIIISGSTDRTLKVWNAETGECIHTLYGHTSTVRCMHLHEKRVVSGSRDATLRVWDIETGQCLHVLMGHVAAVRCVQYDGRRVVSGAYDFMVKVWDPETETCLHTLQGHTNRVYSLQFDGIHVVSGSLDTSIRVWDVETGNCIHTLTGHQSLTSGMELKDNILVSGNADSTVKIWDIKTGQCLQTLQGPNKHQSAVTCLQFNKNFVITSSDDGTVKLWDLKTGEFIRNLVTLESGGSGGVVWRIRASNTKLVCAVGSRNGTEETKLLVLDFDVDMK

Binder	% Inhibition Fbw7 @ 10 µM [%]	% Inhibition Fbw7 @ (100 µM) [%]
B1	2	0
B2	0	8
B3	0	12
B4	0	0
B5	9	0
Bz-[dD]EG[Phe(3-F)]WE-NH2 (also called UBP018) [Bz-dEGF(3F)WE-NH2]	0	5
B6	10	11
B7	1	8
B8	4	10
B9	3	8
B10	3	8
Ac-[dD]EG[Phe(3-F)]WE-NH2 (also called UBP017) [Ac-dEGF(3F)WE-NH2]	3	0
B11	6	8
Propionyl-[dD]EG[Phe(3-F)]WE-NH2 (also called UBP019) [Et(CO)-dEGF(3F)WE-NH2]	0	10

target: T2, HisβTrCP/Skp1 and HisβTrCP/GSTSkp1 (immobilised on NTA Biacore chip) (UniProt Q9Y297 175-605; P63208 1-163); test: SPR, Biacore T200, βTrCP/Skp1 immobilised
T2 construct: SPR: KD values from both surfaces (with or without the GST moiety) were averaged to give the apparent KD; also called βTrCP surfaces
T2 sequence (Q9Y297 175-605, chain 1 of 2): as the sequence (Q9Y297 175-605, chain 1 of 2) above
T2 sequence (P63208 whole entry, chain 2 of 2): as the sequence (P63208 whole entry, chain 2 of 2) above
Text: As βTrCP was His tagged, an NTA sensor chip was used. This sensor chip has a dextran surface matrix with immobilized nitrilotriacetic acid (NTA) which provides a means of capturing polyHis-tagged proteins through Nickel chelation. It was hoped that addition of Ni⁺ would orient the protein in a specific (and hopefully active) manner as it is covalently immobilised via amine coupling. Addition of EDC:NHS (N-ethyl-N′-(3-[…])-carbodiimide:N-hydroxysuccinimide) converts carboxyl groups on the dextran sensor chip surface to succinamide esters which readily form covalent bonds with primary amines. Each chip contains four flow cells (each a separate surface) which means that compounds/peptides can be passed over different forms of βTrCP and a reference surface simultaneously. If binding to βTrCP is occurring, responses should be the same (accounting for differences in density of surface etc) on each surface.
Small molecule/peptide samples to be assayed for binding to βTrCP surfaces, were provided as 10 mM stocks in 100% DMSO. All samples were tested in running buffer composed of 10 mM HEPES pH 7.4, 150 mM NaCl, 50 μM EDTA, 0.005% p20, and 1% DMSO. Serial dilutions were made using running buffer. Samples were tested over varying concentrations up to a maximum of 100 μM. Two methods of measuring the SPR response were employed: single cycle kinetics which measures the response across different concentrations of sample within a single cycle (no regeneration of surface) and a method that measures the response at a given concentration in each cycle and includes a regeneration wash after each sample injection. The regeneration solution used was the same as running buffer, but included 500 mM NaCl. Data was fitted using Biacore T200 evaluation software. KD values calculated from binding curves from both surfaces (with or without the GST moiety) were averaged to produce apparent KD's for each sample tested.

Binder	Kd [µM]
B1	0.603
B2	0.495
B3	0.034
B4	29.5
B5	0.19
Bz-[dD]EG[Phe(3-F)]WE-NH2 (also called UBP018) [Bz-dEGF(3F)WE-NH2]	0.424
B6	0.262
B7	0.292
B8	0.637
B9	0.68
B10	0.59
Ac-[dD]EG[Phe(3-F)]WE-NH2 (also called UBP017) [Ac-dEGF(3F)WE-NH2]	0.25
B11	0.053
Propionyl-[dD]EG[Phe(3-F)]WE-NH2 (also called UBP019) [Et(CO)-dEGF(3F)WE-NH2]	0.15

target: T1, βTrCP (tag cleaved and complexed with …); test: FP competition vs fluorescein-IκB peptide; remark: another data set of the same source

Binder	IC50 [µM]
B1	0.042
B2	0.027
B3	0.045
B5	0.029
Bz-[dD]EG[Phe(3-F)]WE-NH2 (also called UBP018) [Bz-dEGF(3F)WE-NH2]	0.173
B6	0.044
B7	0.025
B8	0.081
B9	0.034
B10	0.112
Ac-[dD]EG[Phe(3-F)]WE-NH2 (also called UBP017) [Ac-dEGF(3F)WE-NH2]	0.102
B11	0.076
Propionyl-[dD]EG[Phe(3-F)]WE-NH2 (also called UBP019) [Et(CO)-dEGF(3F)WE-NH2]	0.145
